Publication PMC2820527

Molecular target: SmTK4-SH2SH2 (tandem SH2-domain of SmTK4 as a fusion protein with the Gal4-BD) (Schistosoma mansoni) (UniProt Q8WPV5)
Assay: two-hybrid; beta-Gal liquid assay (ONPG) in AH109, relative binding strength; bait plasmid co-expresses the SmTK3 TK-domain (additional phosphorylation)

fold increase of the interaction (β-Gal liquid assay) with the SmTK3 TK-domain against without it: 5 fold
Substance: SmTK6 prey clone (novel schistosome Src kinase SmTK6, partial, Gal4-AD fusion) (from UniProt C5J9R9 1-565) (domain or fragment)
